According to the RNAGym collection of RNA variant scans (doi:10.1021/acssynbio.7b00057):

B1: Pistol ribozyme (parent)
chain: GGGUCGUUGUUCCAUAAUCGCGUGGAUAUGGCACGCAAGUUUCUACCGGGCACCGUAAAUGUCCGACUGGAGCCGUUCGGGCGGCUAUAAACAGACCUCAGGCCCGAAGCGUGGCGGCACCUGCCGCCGGUGGUAAAAAAGAUCGGAAGAGCACACGUCU

Variants of: B1
Experiment: aptazyme ON/OFF ratio, guanine; higher = stronger switching; co-transcriptional cleavage with and without guanine

Point of comparison: U7A U8C U10C U11A C12U, “aptazyme ON/OFF ratio” value 1.19. Against it:
- U7A U8C U10C U11G C12G C13U — lower, 1.14
- U7A U8C U10C U11G C12G C13A — higher, 1.26
- U7A U8C G9U U10G U11C C12G C13A — higher, 1.22
- U7A U8C G9U U10G U11C C12G C13U — higher, 1.21
- U7A U8C G9U U10G U11C C12G C13G — lower, 1.17
- U7A U8C U11A C12G C13U — lower, 1.15
- U7A U8C U11A C12G C13A — lower, 1.06
- U7A U8C U11A C12G C13G — lower, 1.1
- U7A U8C U10G U11A C12G C13G — lower, 1.14
- U7A U8C U10G U11A C12G C13A — lower, 1.18
- U7A U8C U10G U11A C12G C13U — higher, 1.2
- U7A U8C G9U U10G C12U C13A — higher, 1.61
- U7A U8C G9U U10G C12U C13U — lower, 1.14
- U7A U8C G9U U10G C12U C13G — higher, 1.72
- U7A U8C U10A — lower, 1.06
- U7A U8C U10G — higher, 1.47
- U7A U8C U10C — higher, 2.24
- U7A U8C U10G U11C C12A C13A — higher, 1.34
- U7A U8C U10G U11C C12A C13U — higher, 1.39
- U7A U8C U10G U11C C12A C13G — lower, 1.12
- U7A U8C U10G U11A C12G — higher, 1.37
- U7A U8C U10G U11A C12A — higher, 1.42
- U7A U8C U10G U11A C12U — lower, 1.11
- U7A U8C U10C U11C C13U — lower, 1.01
- U7A U8C U10C U11C C13G — lower, 1.17
- U7A U8C U10C U11C C13A — lower, 1.03
- U7A U8C U10A C12U C13A — lower, 1.11
- U7A U8C U10A C12U C13G — lower, 1.08
- U7A U8C U10A C12U C13U — higher, 1.22
- U7A U8C U10A C12A C13U — higher, 1.22
- U7A U8C U10A C12A C13A — higher, 1.22
- U7A U8C U10A C12A C13G — lower, 1.15
- U7A U8C G9U U10G U11G C12U — higher, 1.25
- U7A U8C G9U U10G U11G C12G — higher, 1.22
- U7A U8C G9U U10G U11G C12A — lower, 1.18
- U7A U8C G9U U10G U11C C12G — higher, 1.32
- U7A U8C G9U U10G U11C C12A — higher, 1.25
- U7A U8C G9U U10G U11C C12U — lower, 1.12
- U7A U8C G9U U11G C12U C13A — higher, 1.22
- U7A U8C G9U U11G C12U C13G — lower, 1.14
- U7A U8C G9U U11G C12U C13U — higher, 1.28
- U7A U8C G9U U11G C13U — higher, 1.27
- U7A U8C G9U U11G C13A — higher, 1.2
- U7A U8C G9U U11G C13G — lower, 1.12
- U7A U8C G9U U10G U11A C12G — higher, 1.21
- U7A U8C G9U U10G U11A C12U — lower, 1
- U7A U8C G9U U10G U11A C12A — lower, 1.14
- U7A U8C U10A C12A — higher, 1.24
- U7A U8C U10A C12U — lower, 1.1
- U7A U8C U10A C12G — lower, 1.18
- U7A U8C G9U U11A C12G C13A — lower, 1.14
- U7A U8C G9U U11A C12G C13G — higher, 1.22
- U7A U8C G9U U11A C12G C13U — higher, 1.2
- U7A U8C U10G C12A — higher, 1.21
- U7A U8C U10G C12U — higher, 1.27
- U7A U8C U10G C12G — lower, 1.12
- U7A U8C G9U U10G C12G C13U — higher, 1.28
- U7A U8C G9U U10G C12G C13A — the same, 1.19
- U7A U8C G9U U10G C12G C13G — lower, 1.14
- U7A U8C U10C U11A C13U — lower, 1.17
- U7A U8C U10C U11A C13A — lower, 1.15
- U7A U8C U10C U11A C13G — lower, 1.16
- U7A U8C G9U U11G C12A C13U — lower, 1.17
- U7A U8C G9U U11G C12A C13G — higher, 1.27
- U7A U8C G9U U11G C12A C13A — higher, 1.22
- U7A U8C G9U U10G U11G C13U — lower, 1.17
- U7A U8C G9U U10G U11G C13A — lower, 1.18
- U7A U8C G9U U10G U11G C13G — lower, 1.14
- U7A U8C U10C U11C C12G C13A — lower, 1.12
- U7A U8C U10C U11C C12G C13U — lower, 1.09
- U7A U8C U10C U11C C12G C13G — lower, 1.1
- U7A U8C U10A U11A C12G C13G — higher, 1.31
- U7A U8C U10A U11A C12G C13U — higher, 1.28
- U7A U8C U10A U11A C12G C13A — lower, 1.11
- U7A U8C U10C U11A C12A — higher, 1.29
- U7A U8C U10C U11A C12G — higher, 1.28
- U7A U8C U10C U11G C12U C13G — lower, 1.16
- U7A U8C U10C U11G C12U C13U — higher, 1.28
- U7A U8C U10C U11G C12U C13A — higher, 1.28
- U7A U8C U10C U11G C12U — higher, 1.3
- U7A U8C U10C U11G C12G — higher, 1.25
- U7A U8C U10C U11G C12A — higher, 1.2
- U7A U8C U11A C12A — higher, 1.32
